In publication PMC6800875, “Codon harmonization reduces amino acid misincorporation in bacterially expressed P. falciparum proteins and improves their immunogenicity” (AMB Express, 2019):

B1: histidine tag-free CH-PfCelTOS (natural protein)
chain: GTFRGNNGHNSSSSLYNGSQFIEQLNNSFTSAFLESQSMNKIGDDLAETISNELVSVLQKNSPTFLESSFDIKSEVKKHAKSMLKELIKVGLPSFENLVAENVKPPKVDPATYGIIVPVLTSLFNKVETAVGAKVSDEIWNYNSPDVSESEESLSDDFFD
notes: two non-native amino acid residues introduced by cloning; the chain is 161 residues long, so one more residue stands before them; begins at F R G and holds 158 PfCelTOS residues; natural residue numbering; Made from the CH-PfCelTOS clone by replacing the His-tag linker; this is surmised; also called His-tag free PfCelTOS; Histidine tag-free PfCelTOS; source: E. coli, purified (Q-Sepharose twice, …)
B2: N-PfCelTOS (P. falciparum cell-traversal protein for ookinetes and sporozoites, expressed from the native codon sequence) (natural protein)
chain: FRGNNGHNSSSSLYNGSQFIEQLNNSFTSAFLESQSMNKIGDDLAETISNELVSVLQKNSPTFLESSFDIKSEVKKHAKSMLKELIKVGLPSFENLVAENVKPPKVDPATYGIIVPVLTSLFNKVETAVGAKVSDEIWNYNSPDVSESEESLSDDFFD
notes: begins at F R G and holds 158 PfCelTOS residues; 174 residues in all with the 16 amino acid linker; natural residue numbering; also called N-protein; source: E. coli B834 (DE3), purified (Ni-NTA, Q-Sepharose); not shown: His6 (within a 16 amino acid linker), N-terminal, kept
B3: CH-PfCelTOS (P. falciparum cell-traversal protein for ookinetes and sporozoites, expressed from the codon harmonized sequence) (natural protein, UniProt Q8I5P1 25-182, looked up)
chain: B2 chain
notes: begins at F R G and holds 158 PfCelTOS residues; 174 residues in all with the 16 amino acid linker; natural residue numbering; also called CH-protein; source: E. coli B834 (DE3), purified (Ni-NTA, Q-Sepharose); not shown: His6 (within a 16 amino acid linker), N-terminal, kept

How the values were obtained:
[1] = target: the molecule itself; test: SEC; calibrated Superdex G-200 column, PBS pH 7.4, 0.5 mL/min, 4 °C; three standards (66, 29, 12.4 kDa); oligomer size estimated from the elution volume
[2] = target: the molecule itself; test: SDS-PAGE with western blot (band that resists denaturation); purified protein, untreated or incubated at 37 °C or 65 °C for 1, 4 and 24 h, on 4-20% Tris-glycine SDS-PAGE; blots probed with anti-His mAb and mAb 3D11.D4

Protein	stoichiometry N [1]	stoichiometry N [2]
B1	~4	
B2	~3	~2
B3	~4	~2
